Experimental data published in US7906477B2, “Activation of peptide prodrugs by hK2” (Genspera, Inc., priority 2002, dated 2011).

Legend:
[1] = test system: T1, C[C@H](NC(=O)[C@H](CCCCN)NC(=O)CNC(=O)[C@@H](N)Cc1ccc(O)c([N+](=O)[O-])c1)C(=O)N[C@@H](Cc1ccccc1)C(=O)N[C@@H](CCCNC(=N)N)C(=O)N[C@@H](CCCNC(=N)N)C(=O)N[C@@H](CN)C(=O)N[C@@H](Cc1ccccc1)C(=O)N[C@@H](CCCCNC(=O)c1ccccc1N)C(=O)O; test: hK2 mediated hydrolysis of peptide substrates in solution (fluorescence); format: biochemical, human; conditions: other: Lineweaver-Burke reciprocal plots; 37.0 °C
T1 construct: made in house
Method: FIG. 2 depicts a graph of hK2 mediated hydrolysis of peptide substrates identified through the screening of a random peptide library [Y′GKARAF-Dap-FK′ (SEQ ID NO:36), Y′GKAKPR-Dap-FK′ (SEQ ID NO:37), Y′GKAFRR-Dap-FK′ (SEQ ID NO:38), Y′GKAMRQ-Dap-FK′ (SEQ ID NO:39) and Y′GSKGHFKL-Dap-F-K′ (SEQ ID NO:40)]. Substrates (250 μM) were incubated with 8 μg/ml hK2 in PBS buffer. Hydrolysis of peptide results in increased fluorescence, as measured using a 96 well fluorometer. […] To determine 100% digestion, trypsin was added (50 mg/ml) and samples were incubated to 37° C. for 30 min and the fluorescence was determined. The percentage digested is determined by dividing fluorescence units of sample by fluorescence units of control fully digested peptide.
A mutant form of hK2 was utilized in which the amino acids −5 to −1 of the propeptide sequence of hK2 (i.e. Leu-Ile-Gln-Ser-Arg; SEQ ID NO:15) were mutated to Asp-Asp-Asp-Asp-Lys (SEQ ID NO:16) to generate a pro-hK2 protein that can be activated to functional hK2 by […] (Lovgren, J. et al. (1999) Eur. J. Biochem. 266:1050-1055). […]
For validation of the Edman results, peptides were re-synthesized using a Rainin PS3 peptide synthesizer with HBTU/NMM activation. […] Fluorescence measurements were performed on a Fluoroskan II 96-well plate reader (ICN biomedicals, Costa Mesa, Calif.; excitation, 355 nm; emission, 460 nm). Kinetic parameters were calculated as described earlier (Denmeade, S. R. et al. (1997) Cancer Res. 57:4924-4930).
The combinatorial screen identified seven arginine-containing peptides. […] All four arginine-containing sequences that were re-synthesized reproduced fluorescence when these peptides were digested on-bead with hK2. For a more quantitative analysis, the fluorescence-quenched peptides were cleaved off the resin and purified by HPLC. The rate of hydrolysis was quantified by measuring increase in fluorescence (Figure). […] In subsequent studies, hydrolysis rates using the Y′GKAFRR-Dap-F-K′ (SEQ ID NO:38) peptide were analyzed by Lineweaver-Burke reciprocal plots.

[2] = test system: T2, Cc1cc(=O)oc2cc(NC(=O)[C@H](CCCNC(=N)N)NC(=O)[C@H](Cc3ccccc3)NC(=O)[C@H](C)NC(=O)[C@H](CCCCN)NC(=O)CN)ccc12; test: as above; format: biochemical, human; conditions: other: Lineweaver-Burke reciprocal plots; 37.0 °C
T2 construct: made in house

**Q.** What does the source list for hK2 (Homo sapiens)?
**A.** Km [1]: 26.5 µM; kcat [1]: 1.09 s⁻¹; kcat/Km [1]: 41,132 sec^−1 M^−1; Km [2]: 146 µM; kcat [2]: 0.13 s⁻¹; kcat/Km [2]: 895 M⁻¹ s⁻¹
